Assay results as given in PMC3991884, “Trehalose synthesis in Aspergillus niger: characterization of six homologous genes, all with conserved orthologs in related species” (BMC Microbiology, 2014).

B1: TpsB (natural protein, Aspergillus niger, UniProt Q00217 1-480, looked up)
chain: MAANGSSSEGDHRLLIVSNRLPITIRRSGGGKYEFSMSSGGLVTGLSGLSKTTTFQWYGWPGLEVPEDEIDSVKQRLQEEFNATPVFMDDKLADRHYNGFSNSILWPLLHYHPGEIVFDEAAWDAYREANRLFAKTIAHEAREGDLVWVHDYHLMLLPEVLREELAALGKNNIRIGFFLHTPFPSSEIYRILPVRSQLLRGVLQCDLIGFHTYDYARHFLSCCSHILGLVTTPSSVKFKDRSVAVGAFPIGIDPDKFTEGLKSPKVQNRIASLENKFQGTKLMVSVDRLDYIKGIPQKLHALEVFLSQHPEWVGKVVLVQVAVPSRQDVEEYQNLRAVVNELVGRINGKFGTVDYMPIHFMHKSVSFDELIALYAASDACVVSSTRDGMNLVSFEYVATQQKRKGVLILSEFAGAAQSLNGSIVVNPWNTEELASAYHEAVSMSDDLRAQKFEKLYKYISKYTSAFWGKSFVAELSKCST
notes: TpsB, putative trehalose-6-phosphate synthase of Aspergillus niger (Tps1 ortholog), gene tpsB, ANI_1_1078064; full-length cDNA / open reading frame; Cloned into both vectors; each fusion carries one of the two fragments (T25 or T18), not both; also called tpsB gene product; trehalose-6-phosphate synthase TpsB; source: bacterial two-hybrid fusion (pKT25 and pUT18C), in E. coli BTH101
B2: TpsA (natural protein, Aspergillus niger, UniProt Q00075 1-517, looked up)
chain: MPSLENPTFQNEARLLLVSNRLPITIKRSDDGRYDFSMSSGGLVSGLSGLSKSTTFQWYGWPGLEVPEEEIPVVKERLKQEYNAVPVFIDDELADRHYNGFSNSILWPLFHYHPGEITFDESAWEAYKEANRLFAKAVAKEVQDGDLIWVHDYHLMLLPEMLREEIGDSKENVKIGFFLHTPFPSSEIYRILPVRNELLLGVLHCDLIGFHTYDYTRHFLSACSRLLGLTTTPNGIEFQGKIIACGAFPIGIDPEKFEEGLKKEKVQKRIAMLEQKFQGVKLMVGVDRLDYIKGVPQKLHALEVFLSDHPEWVGKVVLVQVAVPSRQDVEEYQNLRAVVNELVGRINGKFGTVEFMPIHFLHKSVNFDELIALYAVSDACIVSSTRDGMNLVAYEYIATQKKRHGVLVLSEFAGAAQSLNGSIIINPWNTEELAGAYQEAVTMSDEQRALNFSKLDKYVNKYTSAFWGQSFVTELTRISEHSAEKFHAKKASFSDNNSENGEPSNGVETPAQEQVAQ
notes: TpsA, putative trehalose-6-phosphate synthase of Aspergillus niger (Tps1 ortholog), gene tpsA, ANI_1_1406074; full-length cDNA / open reading frame; Cloned into both vectors; each fusion carries one of the two fragments (T25 or T18), not both. cDNA from A. niger N402 background; also called tpsA gene product; trehalose-6-phosphate synthase TpsA; source: bacterial two-hybrid fusion (pKT25 and …)

Assays:
Test in all cases: two-hybrid; bacterial adenylate cyclase two-hybrid (BACTH System Kit); pKT25 and pUT18C fusions co-transformed into E. coli BTH101; LB with ampicillin, kanamycin and 0.5 mM IPTG, 100 rpm, 20°C, 72 h; β-galactosidase assay as units/mg dry weight; three to four independent assays
TpsB = biological target: B1
TpsC (Aspergillus niger) = biological target: TpsC (Aspergillus niger)
TpsA = biological target: B2; settings: partners not purified
[1] = biological target: the molecule itself
TppA (Aspergillus niger) = biological target: TppA (Aspergillus niger)

| Molecule | β-galactosidase activity (two-hybrid) (units/mg dry weight bacteria) (TpsB) | β-galactosidase activity (two-hybrid) (units/mg dry weight bacteria) (TpsC (Aspergillus niger)) | β-galactosidase activity (two-hybrid) (TpsA) | β-galactosidase activity (two-hybrid) [1] | β-galactosidase activity (two-hybrid) (units/mg dry weight bacteria) (TppA (Aspergillus niger)) | β-galactosidase activity (two-hybrid) (TpsB; partners not purified) |
| --- | --- | --- | --- | --- | --- | --- |
| TppA (natural protein) | 691 | – | – | – | – | – |
| TpsC (natural protein) | 688 | 1210 | – | – | – | – |
| B1 | – | 441 | 1590 units/mg dry weight bacteria | 1780 units/mg dry weight bacteria | 581 | – |
| B2 | – | – | – | 418 units/mg dry weight bacteria | – | 1750 units/mg dry weight bacteria |
